Measured values: the supplement of paper PMC9170038

Test system: MS2 coat protein
Assay: apparent KD of MS2 coat protein; designed switch direction (-1 OFF switch, 1 ON switch): -1; higher = weaker reporter binding
How it was run: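 Transcription of designed RNA switches on Illumina chips was done by stalled E. coli RNA polymerase. SNAP-549-labelled MS2 coat protein was then titrated in doubling steps from 0.7 or 1.5 nM to 3 µM, with steps of 0.8–1.5 h at the lowest and 10–20 min at the highest concentration. The per-design median over clusters of curve-fitted normalised fluorescence is reported as apparent KD.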

[1] = input ligand: microRNA oligo, concentration not stated
[2] = Eterna round: R95, input ligand: microRNA oligo, concentration not stated
[3] = Eterna round: R95, input ligand: FMN 200 uM
[4] = Eterna round: R95, input ligand: none

Sequence | apparent KD of MS2 coat protein (input ligand: FMN 200 uM) [nM] | apparent KD of MS2 coat protein (input ligand: none) [nM] | apparent KD of MS2 coat protein [2] [nM] | also measured
CUAGCGAGUGUAGGAUAUCGGACUGUUUCAGUCUGAGAAGGACAUGAGGAUCACCCAUGUGAAGCUACGUGAGUAGCACGCUAG [JL ENG1 3.87] (Eterna round: R96, puzzle: Exclusion NG 1) | 74.5 | 24.5 | – | apparent KD of MS2 coat protein [1]: 18.3 nM
GGCAGUCGAGGAUAUACGAUCGUGCUUCGGCACGUAAGAUCACAUGAGGAUCACCCAUGUAGAAGGCGACUGCC [Mod 2 - Jieux - Exclusion 2] (Eterna round: R97, puzzle: Exclusion 2) | 214 | 33.4 | – | –
AAUAACAGAGGAUAUACUGUUUUAUGUGUUUGUUGUUUUAAACAUGAGGAUCACCCAUGUAGAAGGCUGAAUGA [JMF 60] (puzzle: Exclusion 2) | – | – | 21.8 | –
AGUCGGUCAGGAUAUGCAAUCGUGGACAUGAGGAUCACCCAUGUAACGUGGGCCUGGUUUGUAGAAGGGACGUGCA [EX5 #88] (Eterna round: R97, puzzle: Exclusion 5) | 63.2 | 55.2 | – | –
AAGAAUCAAGGAUAUGCAUGAUACGACAUGAGGAUCACCCAUGUCCUCACGCGUAUCCUUGCAGAAGGUGAGUAUA [EX5 A.22] (Eterna round: R97, puzzle: Exclusion 5) | 15 | 15.3 | – | –
CGCCCGGGAGGAUAUCCAAUAUAUGACAUGAGGAUCACCCAUGUUUCCACUCGUACCUCCGGAGAAGGCCCGGCGA [Ex5 #28] (Eterna round: R97, puzzle: Exclusion 5) | 20.2 | 24.9 | – | –
GAAGGGCGUCUAGGAUAUAGUAUACGGCGAACAUGAGGAUCACCCAUGUGUCCGAAUGCGGCGAGCUAGAAGGAGAAUUCGCCC [Enuseszave] (Eterna round: R96, puzzle: Exclusion NG 2) | 72.4 | 49.1 | – | apparent KD of MS2 coat protein [1]: 33.4 nM
CUCAUGUGAGGAUAUGUGAUCAACCUUCUAUAUAGAUGAUGACAGAAGGCACAUGAGGAUCACCCAUGUAGAUC [Ex4 - 3 - 19] (puzzle: Exclusion 4) | – | – | 37.9 | –
CAGUACUGAGGAUAUACAUGAGGAUCACCCAUGUGAGAAAUACUAAUGAGGUCGAUUAGUAGAAGGCAGUACUG [Mat - Exclusion 3 - Eli Mod - D32] (Eterna round: R97, puzzle: Exclusion 3) | 255 | 19.7 | – | –
AGUACUAGCACGAAAGUGUUAGUACAAUAAGCUUGUGAAACAUGAGGAUCACCCAUGUCCUCAUAAGCUCGUCUUAU [salish99_TOv2_r3_020] (puzzle: Sensor v3, turn-off variant 2) | – | – | 429 | apparent KD of MS2 coat protein [3]: 18.2 nM; apparent KD of MS2 coat protein [4]: 16 nM
UUUAUGCUAGGAUAUGCACCCUCGAACAUGAGGAUCACCCAUGUACAAUAAACGCAUGGAGCAGAAGGAGCUCCGA [EX5 A.5] (Eterna round: R97, puzzle: Exclusion 5) | 203 | 86.7 | – | –
CUGUACUGAGGAUAUACAUGAGGAUCACCCAUGUGUUCCUGCUAGGAAACUAGCAAGGGUAGAAGGCAGUACAG [Mat - Exclusion 3 - Eli Mod - D46] (Eterna round: R97, puzzle: Exclusion 3) | 100 | 15.7 | – | –
GAAAAGGAAGGAUAUACGAAAAAAAAGGGUAGAAAAAAAACACAUGAGGAUCACCCAUGUAGAAGGUCCAAAAG [salish99_ex2_r3_092] (puzzle: Exclusion 2) | – | – | 43.5 | apparent KD of MS2 coat protein [3]: 151 nM; apparent KD of MS2 coat protein [4]: 54.5 nM
UUAUGAGAGCAGGAUAUCUUAUAAGUGUAUUAAAGAGAAGGGCUCACAUGAGGAUCACCCAUGUGGUCCUAGAU [LRO-Excl6-17-mod of 4.86 by jal] (Eterna round: R97, puzzle: Exclusion 6) | 106 | 33.3 | – | –
CUAAAUCAUGUAGGAUAUGCGUGGCGAAGCUAUGCAGAAGGACAUGAGGAUCACCCAUGUGCUUCCGUCUGAGAACAGACGGAA [Mat - Exclusion NG 1 - Mod of JL - D26] (Eterna round: R96, puzzle: Exclusion NG 1) | 115 | 251 | – | apparent KD of MS2 coat protein [1]: 277 nM
CUAUGUUAGCAGGAUAUGCCAUUAUUCCUUUACGCAGAAGGGCUUACAUGAGGAUCACCCAUGUUACAUUUCAU [JR_E6_Sub084] (puzzle: Exclusion 6) | – | – | 15.7 | –
UUUUUUUUGGUAAGGAUAUGAUGCAGGAAACUGCGUCAGAAGGUACAUGAGGAUCACCCAUGUUAAUUUUUUUU [Explosion 11 - Jieux - Brourd's mod of Exclusion 4] (Eterna round: R97, puzzle: Brourd's mod of Exclusion 4) | 23 | 18.6 | – | –
CGAUGUCUUCGGACAUCGAACAUGAGGAUCACCCAUGUAUAGAGCAGAUCUUCAUGCAAGCUUUUUGCUCGUCUUAU [Sensor v3 - turn-off variant 1 - 47] (puzzle: Sensor v3, turn-off variant 1) | – | – | 14.6 | apparent KD of MS2 coat protein [3]: 84.7 nM; apparent KD of MS2 coat protein [4]: 90.4 nM

Sequence | apparent KD of MS2 coat protein (input ligand: FMN 200 uM) [nM] | apparent KD of MS2 coat protein (input ligand: none) [nM] | apparent KD of MS2 coat protein [2] [nM] | also measured
UAUAUAUAGUAAGGAUAUGUAUUAAUUUUAUGAACAGAAGGUACUGACAUGAGGAUCACCCAUGUUUUAGUGUGGGCAUGUAGA [JMF's solution 91] (Eterna round: R96, puzzle: Exclusion NG 1) | – | – | – | apparent KD of MS2 coat protein [1]: 65.5 nM
UUACAGCAAGGAUAUACAUGAGGAUCACCCAUGUAUGCAUGUUCGAGAGAGGCCUACGGUAGAAGGUGCAUGUU [EX3 C.11] (Eterna round: R97, puzzle: Exclusion 3) | 25.2 | 39.8 | – | –
UUUUAGCAAGGAUAUACAUUUUUUUUAUUAUCCUCAUUAUUACAUGAGGAUCACCCAUGUAGAAGGUGCAUUUU [My Design] (puzzle: Exclusion 2) | – | – | 36.7 | –
UUUGAUAGCACAGGAUAUUGUGAUUUGAGUUGACAAGAAGGGUGUACAUGAGGAUCACCCAUGUAAUGGUUGCCUCGUUGACUU [JR_ExcNG1_Sub006] (Eterna round: R96, puzzle: Exclusion NG 1) | 48.8 | 46.8 | – | apparent KD of MS2 coat protein [1]: 36 nM
CUCUUGUCAGGAUAUUAUGGACGAUAGCAGGACUACGUCAGUGAGAAGGGACAUGAGGAUCACCCAUGUAAAAU [Anqubi] (puzzle: Exclusion 4) | – | – | 72.6 | –
CUAGAUCUUCGGAUCUAGUACAUGAGGAUCACCCAUGUUACGAGUUGAUUUUCAUACAAGCUUUUUGCUCGUCUUAU [Sensor v3 - Turn-off variant 1 - 28] (puzzle: Sensor v3, turn-off variant 1) | – | – | 84.4 | apparent KD of MS2 coat protein [3]: 134 nM; apparent KD of MS2 coat protein [4]: 153 nM
CGGGCCGGCCUUCCGGCCGGCCCGACAUGAGGAUCACCCAUGUAGGAUAUCCCGGCUGCCGGCCGGGAGAAGGGCGUGCGUCCG [-50.4, -49.4 kcal, 14% A] (Eterna round: R96, puzzle: Exclusion NG 3) | 151 | 137 | – | apparent KD of MS2 coat protein [1]: 87.8 nM
UCACGGGAUUGAGGAUAUAUAUUAAUUUUUUUUAUAGAAGGCAAAUUGUUAGAUUAUUCACUAUACAUGAGGAUCACCCAUGUU [JR_ExcBG1_Sub077] (Eterna round: R96, puzzle: Exclusion NG 1) | – | – | – | apparent KD of MS2 coat protein [1]: 19.9 nM
AAUUUACAUGAGGAUCACCCAUGUGAGGAUAUGGUUUCGCUGGCCGUAGCCAGUGGAACCAGAAGGCGCAUGAU [Mat - Exclusion 1 - JL Mod - D12] (Eterna round: R97, puzzle: Exclusion 1) | 283 | 65.2 | – | –
CAGACACAUGAGGAUCACCCAUGUGAGGAUAUGCGUACGUUGUCCGUAGGCGACGUGCGCAGAAGGCACAAAGG [JL-ex1-3.09 Eli mod] (puzzle: Exclusion 1) | – | – | 52.7 | –
UUAUACGUUGAGGAUAUGUUAUUUAGUAUAGUUACAGAAGGCGAUACAUGAGGAUCACCCAUGUUUAUGGGCAU [Ex-6 Malc#1] (puzzle: Exclusion 6) | – | – | 196 | –
GGAACUGGAGGAUAUACAUGAGGAUCACCCAUGUAUAGAUAUGGUUAUUAGCCUCAUAGUAGAAGGUUAGUGGC [EX3 C.4] (Eterna round: R97, puzzle: Exclusion 3) | 21.6 | 20.1 | – | –
CUUUUGUGAGGAUAUUAGUAGUAAUACAAUAGUAUUACUACUGAGAAGGCACAUGAGGAUCACCCAUGUUCCUC [Ex4 344 Omei mod 5] (puzzle: Exclusion 4) | – | – | 36.5 | –
AGGUUGUGAGGAUAUUAGUUAUAUGAUUGGAGGAGUAUGGCUGAGAAGGCACAUGAGGAUCACCCAUGUAGAUC [JR_Ex4_Sub048] (Eterna round: R97, puzzle: Exclusion 4) | 555 | 162 | – | –
CGCAACACAUGAGGAUCAAACAUGAGGAUCACCCAUGUAUAACAAGCUUUUUGCUCGUCUUAUAAAUAUGUGUUGCG [Electric Eye 2 - Jieux - Sensor, turn-off variant 1] (Eterna round: R97, puzzle: Sensor, turn-off variant 1) | 16.9 | 9.13 | – | –
GAAAACGCAGAGGAUAUUUCAGGUCAAAGCUGCAAAGAAGGCUGCACAUGAGGAUCACCCAUGUGGUCAAUAAA [Mod of Quesina 21 - Jieux - Exclusion 6] (Eterna round: R97, puzzle: Exclusion 6) | 419 | 34.3 | – | –
UAAUAAAGUGUGAGGAUAUGCUGGUCGAUAGAUCAGCAGAAGGCACAUGAGGAUCACCCAUGUAAUAUAUAAAU [Mat - Exclusion 4 - JL Mod - D58] (puzzle: Brourd's mod of Exclusion 4) | – | – | 40.9 | apparent KD of MS2 coat protein [3]: 258 nM; apparent KD of MS2 coat protein [4]: 45 nM
